Test results: the nanobody polyreactivity screen of Harvey et al. (2022)

Assay: yeast display, Sf9 membrane polyspecificity reagent, FACS + sequencing; frameworks hold sequencing errors
Method in brief: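 A synthetic nanobody library was expressed on Saccharomyces cerevisiae BJ5465 by galactose induction for 36–48 hours. The library was stained for 1 hour at 4 °C with 10% biotinylated, detergent-solubilized Sf9 membrane reagent and enriched with streptavidin microbeads before FACS. Low and high (top ~1%) gates were set on anti-HA fluorescence for expression and streptavidin fluorescence for reagent binding, and each polyreactivity label reflects the gate of origin.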

Sequence	polyreactivity (PSR sort gate)
QVQIVESGGGLVQAGGSLRLSGAASGLIFKYYDMGWSRQAPGKERELVASISRSGGRTYYADSVMGRFTISRDNAMNTVYLQMNSLKPEDTAVYYCNADTWLYWDGDDYWGQGTQVTVSS	high polyreactivity
QVQLVESGGGLVQAGGSLRLSCAASGGIFPGYAMGWYRQAPGKERELVAAISGSGSSTYYADSVKGRFTISRDNAKNTVYLQMNSLKPEDTAVYYCAVYYTRGYDYWGQGTQVTVSS	high polyreactivity
QVQLVESGGGLVQAGGSLRLSCAASGFMFDDNAMGWYRQAPRKERELVAAITSGGGSTYYADSVKGRFTISRDYAKITVYLLMNSLKPEDTAVYYCAAGGYPSLLHDYDYWGQGTQVTVSS	low polyreactivity
QVQLVESGGGLVQAGGSLRLSCAASGLTFAYYAMGWYRQAPGKETELVAAISWNGARTYYADSVKGRFTISRDNSKNTVYLQMNSLKPEDTAVYYCAAVRSASSWQYIWLKYYYWGQGTQVTVSS	high polyreactivity
QVQLVESGGGLVQAGGSLRLSCAASGSTFWVNTMGWYRQAPGKERELVAAISSNGGSTYYADSVKGRFTISRDNAKNTVYLQMNSLKPEDTAVYYCATRQSWSDYYLNVDYDYRGQGTQVTVSS	low polyreactivity
QVQLVESGGGLVQAGGSLRLSCAASGRIFYFNAMGWYRQAPGKERELVADMSSGGRTNYADSVKGRFTISRDNEKNSVYLQMNSLKPEDSAVYYWIAEPYTSSVGYRGYDFDDWGQGTQVTVSS	low polyreactivity
QVQLVESGGGLVQAGGSLRLSCAASGRTFAGNAMGWYRQAPGKEREFVASITASGVNTYYADSVKGRFTISRDNAKNTVYLQMNSLKPEDTAVYYCNKRNRWTPFYTYEYWGQGTQVTVSS	low polyreactivity
QVQLVESGGGLVQAGGSLRLSCAASGRTLAGNAMGWYRQAPGQERELVAAISQGGGSTYYADSVKGRFTISRDKAKNTVYLQMNSLKPEDTAGYYCAAEIPRLWASFATLWYDYWGQGTQVTVSS	low polyreactivity
QVQLVESGGGLVQAGGSLRLSCAASRRIFSDNAMGWNRKAPGKERELVAAITFRDGSTYADSVKGRFTISRDNAKNTVYLPMNSLKPEDTAVYYCNRRSQVHSHSKHDYWGQGTQVTVSS	low polyreactivity
QVQLVESGGGLVQAGGSLRLSCAASGSIFPIYAMGWYRQAPGKERELVAAISGSGARTYYADSVKGRFTISRDNAKNTVYLQMNSLKPEDTAVYYCNAKYGYDSEARIVKPVRYDYWGQGTQVTVSS	high polyreactivity
QVQLEESAGGLVQAGGSLRLSCAASGRTFRRYAMGWYRPAPGKERELVAVISSGGRTNYADSVKGRFTISRDNAKNTVYLQLNSLKPEDTAVYYCNAGPLYSGVYSGYFWGQGTQVTVSS	high polyreactivity
QVQLVESGGGLVQAGGSLRLSCAASGRTFYNYAMGWYRQAPGKERELVAAISGSGGSTYYADSVKGRFTISRDNAKNTVYLQMNSLKPEDTAVYYCAARKDSYYYRSYDSWGQGTQVTVSS	high polyreactivity
QVQLVESGGGLVQAGGSLRLSCAASGRTFTGNVMGWYIKAPGKERELVAAISRSGTSTYYADSVKGRFTISRDNAKNTVYLQMNSRKPEDTAVYYCAARRTAGYRSAEYDYWGQGTQVTVSS	high polyreactivity
QVQLVESGGGIVQAGGSHRLICAASGFTYIRYAMGWYRQAPGKERELVASISNRGGRTYYADSVKGRFTNSRDNAKNTVYLQMNSLKPEDTAVYYCAAGYSYYSWGQGTQVTVSS	high polyreactivity
QVQLVESGGGLVQAGGSLRLSCAASGSIFWIYAMGCYRQAPGKERELVATITRRGGSTYYADSVKGRFTISRDNAKNTVYLQMNSLKPEDTAVYYCATEPGYTYLTSYKYDYWGQGTQVTVSS	low polyreactivity
QVQIVESGGGLVQAGGSLRLSCAASGFTFWNYAMGWYRQAPGKERELVATITRSGGRTYYADSVKGRFTISRDHAKNTGYLQMNSLIPEDTAVYYCSARVWPVVYSWGYNYLGQGTQVTVSS	high polyreactivity
QVQLVDSGGRLVQAGGSLRLSSPASGLIISAYAMGWYRQAPGKEMEFVAAISRSGGITYYADSVKGRFTISRDNAKNTVYLQMNSLKPEDTAVYYCNARLYDPTLKFGYWGQGTQVTVSS	high polyreactivity
QVQLQESGGGLVQAGGSLRLGCAASGNISDPGYMGWYRQAPGKEREFVAAIAAGSNTNYADSVKGRFTISRDNAKNTVYLLMNSLKPEDTAVFYCAVDSYARVQYEYWGQGTQVTVYS	low polyreactivity
QVQLVESGGGLVQAGGSLRLSCAASGITFYVYAMGWYRQPPGTERDLVAAISRRGGSTSYADSVKGRFTISRDTAKNTVYLEMNSLKPEDTAVDYCAAGPFYGGIVRRYDYWGQGTQVTVSS	low polyreactivity
QVQLVESGGGLVQAGGSLRLSSAASGLTIYYYAMGWYRQAPGKERELVAAITWRGGSTYYADSVKGRFTISRDNAKYPDYLQMNCLIPAVTAVYYSAADPGPYGYYYWGQGTQVTVSS	low polyreactivity
QVQLVESGGGLVQAGGSLRLSCAASGFIFPVYTKGWYRQAPGKERELVAAITQIGGSTHYADSVKGRFTISRDNAKNTVYLQMNSLKPEDTAVDYCNAVPSYGTEYDYWGQGTQVTVSS	low polyreactivity
QVQLVESGGGLVQAGGSLRLSCAASGRTFVSNALGWYRQAPGKERELVAAISSSGGSTYYADSVKGRFTISRDNAKNTVYLQMNSLKPEDPAVYYGATYPLYSKYRYDHWGQGTQVTVSS	high polyreactivity

Sequence	polyreactivity (PSR sort gate)
QVQLVESGGGLVHAGGSLRLSCAASGRTFIAYAMGWYRQAPGKERELVADISLRGGSTYYADSVKGRFTISRDNAKNTVYLQMNSLKPEDTAVYYCNTRRLHGWLYGYEYWGQGTQVTVSS	low polyreactivity
QVQLVESGGGLVQAGGSLRLSCAASGFTFIPNAMGWYRQAPGKERELVADITWSGGTTYYADSVKGRFTISRDNAKNTVYFQMNSLKPEDTAVYYCNADYLFYAFDYWGQGTQVTVSS	low polyreactivity
QDQLVESGGGLVQAGGSLRLPCAASGYIFFFNAIGWYRQAPGKERELVAAITRRGVSTYYADSVKGRFTISRDNAKNTVYLQMNSLNPEDTAVYYCATDHNHLGYYYWGQGTQVTVSS	low polyreactivity
QVQLVESGGGLVQAGGSLRLSSAASGSTFSDYAMGWYRQAPGKERELVAAISVSDGSTYYADSVKGRFTISRDNAKNTVYLQMNSLKPEDTAVYYCAAEYPYFVYSYFRFDYWGQGTQVTVSS	low polyreactivity
QVQLVESGGGLVQAGGSLRLSCAASGRIFARNTMGWYRQAPGKERELVAAISWGGGRTYYADSVKGRFTISRDNAKNTVYLQMNSLKPEDTAVYYCAAETLQIPRGEYWGQGTQVNVSS	low polyreactivity
QVQLVESGGGLVQAGGSLRLSCAASGRTFQWYTMGWYRQAPGKERELVAGISWRGGSTYYADSVKGRFTISRDNAKNTVYLQMNSLKPEDTAVYYCAALASRLTGRDYWGQGTQVTVSS	high polyreactivity
QVQLVESGGGLVQAGGSLRLSCAASGIIFEGYAMGWYRQAPGKERELVAGITIGDITYYADSVKGRFTISRDNAKNTVYLQMNSLKPEDTAVYYCAADSYYYQTAYDSWGQGTQVTVSS	low polyreactivity
QVQLVESGGGLVQAGGSLRLSCAASGFIFRPYVMGWYRQAPGKERELVAAISRSGSSTYYADSVKGRFTISRDNAKNTVYLQMNSLKPEDTAVYYCARRTSQEFDYWGQGTQVTVSS	high polyreactivity
QVQLVESGGGLDQAGGSLRLSCAASGSILDSYTMGWYRQAPGKERELVPAITSDGGSTYYADSVKGRFTISRDNAKNTVYLQMNSLKPEDTAVYYCAKLSRYYGFWYTPDFDYWGQGTQVTVSS	high polyreactivity
QVQLVESGGRLVQAGGSLRLSCAASGITFYYYAMGWYRQAPGKERELVAAISSGGTRTYYADSVKGRFTISRDNAKNTVYLQMNSLKPEDTAVYYCAAPTYWHPTYDYWGQGTQVTVSS	high polyreactivity
QVQLVESGGGLVQAGGSLRLSCAASGRIFRSYAMGWYRQAPGKERELFAAISYSGGSTYYADSVKGRFTISRDNAKNTVYLQMNSLKPEDTAVYYCAALPGERKYIYYGYDYWGQGTQVTVSS	high polyreactivity
QVQLVESGGGLVQAGGSLRLSCAASGRTFETYAMGWYRQAPGKERELVATIRSSGSTNYADSVKGRFTISRDNAKNTVYLQMNSLKPEDTAVYYCAAVYVYRTSYLISLYDYGYWGQGTQVTVSS	high polyreactivity
QVQLVESGGGVVQAGRSLRLSCAASGSTFQPYAMGSYRQAPGKEREFVATISGSAGSTYYADSVKGSFKISRDNAKNTVYLQMTSLKPEDTAVYYCNADSGWFGYDYWGQGTQVTVSS	low polyreactivity
QVQLVESGGGLVQAGGSLRLSCAASGSTLGANAMGWYRQAPGKERELVAAISISDGDTYYADSVKGRFTISRDNAKNPVYLQMNSLKPEDTAVYYCAADYWFQYRWYDYWGQGTQVTVSS	high polyreactivity
QVQLEESGGGLVQAGGSLRLSCAASGRTFAYYFMGWYRQAPGKERQLVAAISGSGGSTYYADSVKGRFTISRDNAKNTVYLQMNSLKPEDTAVYYCAAQYAYGGYDYWGQGTQVTVSS	high polyreactivity
QVQLVESGGGLVQAGGSLRLSCAASGYIIGRYVMGWYRQAPGKERELVAAITASGGSTYYADSVKGRFTISRDNAKNTVYLQMNSLKPEDTAVYYCAAPTYGRFLRNDYWGQGTQVTVSS	high polyreactivity
QVQLVESGGGLVQAGGSLRLSCAASGRIFYKYAMGWYRQAPGKERELVAAISWSGGRTYYADSVKGRFTISRDNAKNTVYLQMNSLKPEDTAVYYCAAVRGGASGGYDYWGQGTQVTVSS	high polyreactivity
QVQLVESGGGLVQAGGSLRISCAASGNIFSYYAMGWYRQAPGKERELVAAISSGGSTYYADSVKGRFTISRDNGMNTVYLQMNSLKPEDTAVYYCNKLAYVGRYGYWGQGTEVTVSS	high polyreactivity
QVQLVESDGGLDQAGRSLRLSFAASGTIFDPYSMGWYRQEPGKERELVAAISWSDSSTYYADSVKGRFTISRDNAKNTVYLQKNSLKPEDTAVYYCASDYDLYFYLYEYWGQGTQVTVSS	high polyreactivity
QVQLVESGGGLVQAGGSLRLTCAASGNTFVGNAMGWYRQAPGKERELVAAISRRGGSTYYADSVKGRFTISRDYAKNTVYLQMNSLKPEDTAEYYCAVGWAGRYDYWGQGTQVTVSS	low polyreactivity
QVQLVESGRGLVQAGGSLRLSCAASGSTFLGNAMGWYREAPGKARELVAAITSAGSTYYADSVKGRFTISRDNAKNTVYLQMNSLKPEDTAVYYCNADSTWGGYGFDDWGQGTQVTVSS	low polyreactivity
